These results are taken from patent US20160138094.

Data set [1] deals with TALE_037 (TALE_97 with RVD N* opposite C6) repeat 5 RVD HD to N* (position 13 deleted) (Xanthomonas axonopodis pv. citri (engineered)). As to the kind of experiment: inhibition.
Data set [2] has as its system TALE_038 (TALE_97 with RVD NG opposite C6) repeat 5 RVD HD to NG (Xanthomonas axonopodis pv. citri (engineered)). As to the kind of experiment: inhibition.
Where [3] appears, read: inhibition of Klenow exo- primer extension, MgCl2, room temperature.
[4] abbreviates: 5mC at target position 6, inhibition of Klenow exo- primer extension, MgCl2, room temperature.

Consider “TGGATTCCCACTCTTCAGCCCCAGCGTTACAGCATCTTCAGTGGCTTCTTCCACCGTGAGCTCTTCCGTTTCCACATCC / GGATGTGGAAACGGAAGA [t97 template / p97_rev primer]”, for which the IC50 – broadly, the concentration needed to halve the response being measured – in data set [1] (setting [3]) came out at 60 nM; in data set [2] (setting [3]) it was 357 nM.

Turning to “TGGATTCCCACTCTTCAGCCCCAGCGTTACAGCATCTTCAGTGGCTTCTTCCACCGTGAGCTCTTCCGTTTCCACATCC / GGATGTGGAAACGGAAGA [t97_C6hmC / p97_rev]”, the IC50 in data set [1] (5hmC at target position 6, reduction of primer extension to 50% at about this TALE concentration) is 1500 nM; in data set [2] (5hmC at target position 6, reduction of primer extension to 50%, estimated), 2000 nM.

In the case of “TGGATTCCCACTCTTCAGCCCCAGCGTTACAGCATCTTCAGTGGCTTCTTCCACCGTGAGCTCTTCCGTTTCCACATCC / GGATGTGGAAACGGAAGA [t97_C6mC / p97_rev]”, the half-maximal inhibitory concentration (IC50) amounted to 51 nM in data set [1] (setting [4]) and 163 nM in data set [2] (setting [4]).
